# Data: the DeepSol protein solubility set
# Experiment: soluble on expression in E. coli; label from the status in PepcDB or PDB records
row,Sequence,soluble on expression in E. coli
1,GPLGSVGSWECPVCCVSNKAEDSRCVSCTSEKPGLVSASSSNSVPVSLPSGGCLGLDKFKKPEGSWDCEVCLVQNKADSTKCIACESAKPGT,soluble
2,GQKESQTGKGMKIVTSFYPIYAMVKEVSGDLNDVRMIQSSSGIHSFEPSANDIAAIYDADVFVYHSHTLESWAGSLDPNLKKSKVKVLEASEGMTLERVPGLEDVEAGDGVDEKTLYDPHTWLDPEKAGEEAQIIADKLSEVDSEHKETYQKNAQAFIKKAQELTKKFQPKFEKATQKTFVTQHTAFSYLAKRFGLNQLGIAGISPEQEPSPRQLTEIQEFVKTYKVKTIFTESNASSKVAETLVKSTGVGLKTLNPLESDPQNDKTYLENLEENMSILAEELK,soluble
3,GREQMASFESAYVALSRMKQHVQVYTDNREGWIKAIKNSPEKATAHDILEPRNDRAVKTADLLFGRARPLDETAAGRAALQQSGLAQGSSPGKFISPGKKYPQPHVALPAFDKNGKAAGIWLSPLTDRDGRLEAIGGEGRIMGNEDARFVALQNSRNGESLLAGNMGEGVRMARDNPDTGVVVRLAGDDRPWNPGAMTGGRVWAEPAPVAPVPQAGADIILPPEVLAQRAAEEQQRREMEKKAEQTAREMAGEARKAG,not soluble
4,GRFSDELVEACAEMVRQRWNPHPEPTWVCCVPSLRHLDLVPDFARRLAAKLGLPFIDAIEKVVDNPPQKMQQNRFHQCQNLDGAFVITPPLMPGPALLVDDIVDSAWTLTVLTALLRQAGCPTVYPLALASTSVK,not soluble
5,GRMENEESDVKPPDWPNPMNATSQFPQPQHFDSFGLRLPRDITELPEWSEGYPFYMAMGFPGYDLSADDIAGKFQFSRGMRRSYDAGFKLMVVEYAESTNNCQAAKQFGVLEKNVRDWRKVKPQLQNAHAMRRAFRGPKNGRFALVDQRVAEYVRYMQAKGDPITREAMQLKALEIAQEMNIPEKGFKASLGWCRRMMRRYDLSLRHKVPVPQHLPEDLTEKLVTYQRSVLALRRAHDYEVAQMGNADETPICLEVPSRVTVDNQGEKPVLVKTPGREKLKITAMLGVLADGRKLPPYIILRGTYIPPGKFPSGMEIRCHRYGWMTEDLMQDWLEVVWRRRTGAVPKQRGMLILNGFRGHATDSVKNSMESMNTDMVIIPGGLTSQLQVLDVVVYKPLNDSVRAQYSNWLLAGNLALSPTGNAKKPPLGLFLEWVMVAWNSISSESIVQGFKKCHISSNLEEEDDVLWEIESELPGGGEPPKDCDTESMAESN,soluble
6,GRSLGKLGMRYGKKRVHIAKRNLELAFPEKTPEEVQHIVEENFKNTGMALIETGITWFWPTWRFKTLIVEKDIHALKEKGAEGK,not soluble
7,GSDDNKTTGATYDPNQPVTVESFMPVEGKLREKVIVKGSNFGTDKSKVKVYFVDEAAERLSTVIGIDNNTLYCLAPRQLPGGNRIKVIVDGKEVTTDGTFKYEQAQNVSTISGSASKDGNDDGDLASAKFKYMWGIAAVGNNTVLAYQRDDPRVRLISVDDNKVTTVHPGFKGGKPAVTKDKQRVYSIGWEGTHTVYVYMKASGWAPTRIGQLGSTFSGKIGAVALDETEEWLYFVDSNKNFGRFNVKTQEVTLIKQLELSGSLGTNPGPYLIYYFVDSNFYMSDQNLSSVYKITPDGECEWFCGSATQKTVQDGLREEALFAQPNGMTVDEDGNFYIVDGFKGYCLRKLDILDGYVSTVAGQVDVASQIDGTPLEATFNYPYDICYDGEGGYWIAEAWGKAIRKYAVE,soluble
8,GSETCIYSNWSPWSACSSSTCEKGKRMRQRMLKAQLDLSVPCPDTQDFQPCMGPGCSDEDG,soluble
9,GSFLLPKLTSKKEVDQAIKSTAEKVLVLRFGRDEDPVCLQLDDILSKTSSDLSKMAAIYLVDVDQTAVYTQYFDISYIPSTVFFFNGQHMKVDYGSPDHTKFVGSFKTKQDFIDLIEVIYRGAMRGKLIVQSPIDPKNIPKYDLLYQDI,soluble
10,GSGKNLIMIQVEALQGFVVNKSINGKEITPNLNKWINKSLYFDNYFYQVAQGNTSDAEFMSLNSLYPAQSGAAYYTYAGNTFNSIPKDLGDKGYYTAALHGYNEGFWNRNVMYKSEKFDDFYGQTSYKNDEVVGMGLSDESFLNQSLAKMKTFKQPYFSFLITLSSHYPFNDTAGYEKYTMNKLDVGEYKDTLLGNYFEGIHYTDEQLGKFLDKLDKEGLTKNSIIVLYGDHFAIPKENINQLYSFEGIKDPTDLTWYEYQKVPMFIHFPDDEHKGVNHTYSGQMDIYPTIANLYNISNNYMFGEDILNVKDGDSTNVTFRNGSFTDGK,not soluble
11,GSHMAPADYFRVLVQQFEVQLQQYRQQIEELENHLATQANNSHITPQDLSMAMQKIYQTFVALAAQLQSIHENVKVLKEQYLSYRKMFLGDAG,soluble
12,GSHMGPVEILPFLYLGSAYHASKCEFLANLHITALLNVSRRTSEACMTHLHYKWIPVEDSHTADISSHFQEAIDFIDCVREKGGKVLVHSEAGISRSPTICMAYLMKTKQFRLKEAFDYIKQRRSMVSPNFGFMGQLLQYESEILPSTPNPQPPSCQGEAAGSSLIGHLQTLSPDMQGAYCTFPASVLAPVPTHSTVSELSRSPVATATSC,soluble
13,GSHMIVQIGRREEFDKKLLGEMHKLRAQVFKERKGWDVSVIDEMEIDGYDALSPYYMLIQEDGQVFGCWRILDTTGPYMLKNTFPELLHGKEAPCSPHIWELSRFAINSGQKGSLGFSDCTLEAMRALARYSLQNDIQTLVTVTTVGVEKMMIRAGLDVSRFGPHLKIGIERAVALRIELNAKTQIALYGGVLVEQRLAVS,soluble
14,GSHMNPLASLTTDKNDLYINWLKSLSFFQTNSSCAEALVKVIPHYHNKLIDFSQVLQLVFSASEKFPIQENQPLPEQLMFLSNLEKQTPFAKAVGSSIYKLVTGKNLSLDFASQILKEASILEH,soluble
15,GSHMQAEILLTLKLQQKLFADPRRISLLKHIALSGSISQGAKDAGISYKSAWDAINEMNQLSEHILVERATGGKGGGGAVLTRYGQRLIQLYDLLAQIQQKAFDVLSDDDALPLNSLLAAISRFSLQTSARNQWFGTITARDHDDVQQHVDVLLADGKTRLKVAITAQSGARLGLDEGKEVLILLKAPWVGITQDEAVAQNADNQLPGIISHIERGAEQCEVLMALPDGQTLCATVPVNEATSLQQGQNVTAYFNADSVIIATLC,soluble
16,GSHMRLGAQSIQPTANLDRTDDLVYLNVMELVRAVLELKNELAQLPPEGYVVVVKNVGLTLRKLIGSVDDLLPSLPSSSRTEIEGTQKLLNKDLAELINKMRLAQQNAVTSLSEECKRQMLTASHTLAVDAKNLLDAVDQAKVLANLAHPPAE,soluble
17,GSHMSAEASARPLRVGSRVEVIGKGHRGTVAYVGATLFATGKWVGVILDEAKGKNDGTVQGRKYFTCDEGHGIFVRQSQIQVFEDGADTTSPETPDS,soluble
18,GSHMSKKILIVESDTALSATLRSALEGRGFTVDETTDGKGSVEQIRRDRPDLVVLAVDLSAGQNGYLICGKLKKDDDLKNVPIVIIGNPDGFAQHRKLKAHADEAVAKPVDADQLVERAGALIGFPE,soluble
19,GSHMSPSDLHLPVPGHPIAAIATPVGVGALAIVRISGAGVLDLADRVFRKVHGSGKLAEAAGYTAHFGRLYDGEEMVDEVIALVFRAPRSFTAEQMVEFTCHGGPVVVGRVLRLMLDNGCRLAEPGEFTRRAFLNGRIDLLQAEAIGEMIHARTESAYRTAVSQMKGDLSVRLGGLREQLIRSCALIELELDFSEEDVEFQSRDELTMQIETLRSEVNRLIDSYQHGRIVSEGVSTVIAGKPNAGKSTLLNTLLGQERAIVSHMPGTTRDYIEECFIHDKTMFRLTDTAGLREAGEEIEHEGIRRSRMKMAEADLILYLLDLGTERLDDELTEIRELKAAHPAAKFLTVANKLDRAANADALIRAIADGTGTEVIGISALNGDGIDTLKQHMGDLVKNLDKLHEASVLVTSLRHYEALRNASDALQNALELIAHESETELIAFELRAALDYVGQITGKVVNEEVLNTIFDKFCIGK,soluble
20,GSHMTRTRMENELIVSKNMQNIIIAGNGPSLKNINYKRLPREYDVFRCNQFYFEDKYYLGKKIKAVFFNPGVFLQQYHTAKQLILKNEYEIKNIFCSTFNLPFIESNDFLHQFYNFFPDAKLGYEVIENLKEFYAYIKYNEIYFNKRITSGVYMCAIAIALGYKTIYLCGIDFYEGDVIYPFEAMSTNIKTIFPGIKDFKPSNCHSKEYDIEALKLLKSIYKVNIYALCDDSILANHFPLSININNNFTLENKHNNSINDILLTDNTPGVSFYKNQLKADNKIMLNFY,soluble
